Experimental data taken from patent US20190071499A1 (published 2019).

Assays:
g1mIFN-α9 = target: T1, g1mIFN-α9 (mouse, UniProt P09235 24-190); assay: LIPS
T1 construct: also called murine IFN-α9 (Gaussia luciferase fusion); not shown: Gaussia luciferase fusion partner
T1 sequence (looked up): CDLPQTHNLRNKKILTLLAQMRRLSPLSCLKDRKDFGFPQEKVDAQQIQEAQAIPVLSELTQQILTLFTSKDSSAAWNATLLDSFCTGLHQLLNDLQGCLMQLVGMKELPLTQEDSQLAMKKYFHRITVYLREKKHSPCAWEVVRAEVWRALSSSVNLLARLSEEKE

[1] = target: T2, human Fc fusion mouse IFN-α2 (mouse, UniProt P01573 24-190); assay: ELISA, human Fc fusion mouse IFN-α
T2 construct: bought (SinoBiological); also called murine IFN-α2; murine INFA2; not shown: human Fc
T2 sequence (looked up): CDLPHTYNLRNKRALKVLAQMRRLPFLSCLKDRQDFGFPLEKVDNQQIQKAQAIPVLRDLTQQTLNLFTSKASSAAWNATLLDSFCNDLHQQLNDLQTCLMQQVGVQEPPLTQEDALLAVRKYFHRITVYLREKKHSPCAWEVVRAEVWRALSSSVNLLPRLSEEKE

[2] = target: T3, human Fc fusion mouse IFN-α4 (mouse, UniProt P07351 25-186); assay: ELISA, human Fc fusion mouse IFN-α
T3 construct: bought (SinoBiological); also called murine IFN-α4; not shown: human Fc
T3 sequence (looked up): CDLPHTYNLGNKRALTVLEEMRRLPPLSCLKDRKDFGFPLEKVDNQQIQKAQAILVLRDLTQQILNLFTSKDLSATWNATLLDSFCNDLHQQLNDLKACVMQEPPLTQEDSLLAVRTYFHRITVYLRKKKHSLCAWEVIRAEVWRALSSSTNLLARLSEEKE

human IFN-α10 = target: T4, human IFN-α10 (human, UniProt P01566 24-189); assay: ELISA or LIPS (Table 7 summary)
T4 construct: recombinant protein; also called rhIFN-α10
T4 sequence (P01566 24-189 limits assumed): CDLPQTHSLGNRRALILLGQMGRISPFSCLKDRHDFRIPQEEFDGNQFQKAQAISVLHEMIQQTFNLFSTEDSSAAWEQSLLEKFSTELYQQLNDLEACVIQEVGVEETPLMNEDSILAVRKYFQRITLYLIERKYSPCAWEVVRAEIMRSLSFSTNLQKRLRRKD

human IFN-α16 = target: T5, human IFN-α16 (human, UniProt P05015 24-189); assay: ELISA or LIPS (Table 7 summary)
T5 construct: recombinant protein; also called rhIFN-α16
T5 sequence (P05015 24-189 limits assumed): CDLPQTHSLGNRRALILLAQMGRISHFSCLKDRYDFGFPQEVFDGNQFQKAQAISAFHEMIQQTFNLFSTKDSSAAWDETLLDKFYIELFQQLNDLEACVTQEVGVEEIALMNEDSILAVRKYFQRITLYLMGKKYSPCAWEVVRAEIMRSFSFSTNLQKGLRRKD

human IFN-α21 = target: T6, human IFN-α21 (human, UniProt P01568 24-189); assay: ELISA or LIPS (Table 7 summary)
T6 construct: commercial recombinant protein; also called rhIFN-α21; IFN-α21 (PBL)
T6 sequence (P01568 24-189 limits assumed): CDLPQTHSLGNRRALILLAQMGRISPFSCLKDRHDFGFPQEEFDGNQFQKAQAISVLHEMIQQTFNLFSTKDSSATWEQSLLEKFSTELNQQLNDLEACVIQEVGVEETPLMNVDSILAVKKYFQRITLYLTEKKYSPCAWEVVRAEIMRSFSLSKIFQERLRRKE

human IFN-α1 = target: T7, human IFN-α1 (human, UniProt P0DY56 24-189); assay: ELISA or LIPS (Table 7 summary; ELISA at 300 ng/ml MAB in paragraph 311)
T7 construct: commercial recombinant protein; also called IFN-alpha 1beta; IFN-α1/13
T7 sequence (P0DY56 entry or part of it limits assumed): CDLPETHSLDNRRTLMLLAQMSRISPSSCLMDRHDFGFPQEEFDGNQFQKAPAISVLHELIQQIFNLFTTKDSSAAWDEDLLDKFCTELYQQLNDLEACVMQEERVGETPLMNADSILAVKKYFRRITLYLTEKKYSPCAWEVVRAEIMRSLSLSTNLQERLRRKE
Protocol: In this experiment, examined MABs (300 ng/ml) were incubated for 2 hours with antigen-coated plates (coating overnight at 1 μg/ml in PBS, followed by wash out and blocking with 2% BSA in PBS). The plates were subsequently washed and binding of MABs was detected with anti-human HRP-conjugated secondary antibody.

binding result (g1mIFN-α9): no binding
binding result [1]: no binding
binding result [2]: no binding
binding result (human IFN-α10): binds
binding result (human IFN-α16): binds
binding result (human IFN-α21): binds
binding result (human IFN-α1): no binding
B1: 5D1 (antibody, human IgG1, kappa, V domains shown)
VH: EVQLVQAGAEVKAPGESLRISCKVSGYTFTSYWISWVRQIPGKGLEWMVKIDPRDSYTIYNPSFQGHVSISVDKSITTVYLQWSSLQASDTAIYYCVRHYLTQSLVDYFDHWGQGTLVAVSS
VL: DIQMTQSPSSLSASVGDSVTITCRASQSVSNYFHWYRQKPGKAPELLIYSASNLQTGVPSRFTGSGSGTECTLTITSLQPDDFATYYCQQTHGYPFTFGQGTKLDVRR
notes: human-derived IgG1, kappa; also called MAB 5D1; hMAB 5D1
